Assay [1] has as its target BMR–HFBI (diflavin reductase domain of P450 BM3 fused at its C-terminus to hydrophobin HFBI) (Bacillus megaterium | Trichoderma reesei) (UniProt P14779).
Assay [2] shares this target. This is another data set of the same source.
The target is the same in assay [3]. This is another data set of the same source.

For the substance “BMO–HFBI (monooxygenase domain of P450 BM3 fused at its C-terminus to hydrophobin HFBI) (from UniProt P14779 1-472; P52754 23-97)”, the conversion of myristic acid with cofactor regeneration, fivefold molar excess of reductase (1:5 μM), after 2 h in assay [1] came out at 97%. In assay [2], this substance displayed a coupling efficiency (product formed per NADPH consumed) in myristic acid hydroxylation, P450:reductase 1:1 (1 μM each) of 57.4% and a coupling efficiency (product formed per NADPH consumed) in myristic acid hydroxylation, P450:reductase 1:5 (1 μM : 5 μM) of 92.7%. In addition, the conversion of myristic acid with cofactor regeneration, equimolar ratio (1:1 μM), time course 2-24 h (49% after 2 h, 78% after 6 h, 99% after 24 h) in assay [3] is 99%.

Source of the values: paper PMC4930934.
